Test results as given in patent US20190248888A1, “METHODS OF LOWERING BLOOD GLUCOSE LEVELS” (Regeneron Pharmaceuticals, Inc., priority 2016, published 2019).

System: Slc38a5 in α-cells
Test: Slc38a5 RNA in situ hybridization and immunofluorescence of pancreas sections
Assay type: in vivo, mouse
Source text: Formalin fixed mouse pancreatic sections were permeabilized and hybridized with custom made mRNA probes to glucagon and mouse Slc38a5 (ACD BIO). Following probe hybridization and amplification, Slc38a5 mRNA was detected using red chromogen and glucagon mRNA with green chromogen (RNAscope 2.5 HD Duplex Reagent Kit) and images were obtained using a Zeiss Axio Scan.Z1 slide scanner (Zeiss).

B1: α-GCGR: potent monoclonal GCGR blocking antibody, HCVR/LCVR SEQ ID NOs: 86/88 (antibody, V domains shown)
VH: EVQLVESGGGLVQPGGSLRLSCAASGFTFSNYLMNWVRQAPGKGLEWLANIQEDGIEKYYVDSVKGRFTISRDNAKNSLYLQMNSLRAEDTAVYYCAREPSHYDILTGYDYYYGMDVWGQGTTVTVS
VL: DIQMTQSPSSLSASVGDRVTITCRASQGIRNDLGWYQQKPGKAPKRLIYAASSLQSGVPSRFSGSGSGTEFILTVSSLQPEDFATYYCLQYNSNPFTFGPGTKVDIK
Question: For B1, which “Slc38a5 immunostaining of pancreas sections” value (mice, 3 mg/kg, 21 days) is on record?
Answer: detected in a subset of glucagon-positive cells

Question: And the “Slc38a5 mRNA expression in α-cells (RNA ISH)” value (pancreas sections of treated mice)?
Answer: upregulation
